Assay results from patent US7598290B2, “Cytotoxic agents comprising new C-2 modified taxanes” (priority 2005, dated 2009).

What was measured:
[1] = tested on: human melanoma cells, A-375; experiment: In vitro potency and specificity, WST-8 assay, antigen negative A-375 cells; assay type: cell-based; conditions: for IC50: A-375 (antigen negative), 4 days incubation, WST-8
Description: (§1) In vitro potency and specificity of huC242-Taxoid conjugate. Samples of free taxoid or huC242-Taxoid conjugate were added to a 96-well flat bottomed tissue culture plate and titrated using serial dilutions ranging from 1×10^−12 M to 3×10^−7 M. Human colon tumor cells, COLO 205, or human melanoma cells, A-375, were added to the wells in such a way that there were triplicate samples for each drug concentration for each cell line. The plates were incubated at 37° C. in an atmosphere of 5% CO2 for 4 days.
(§2) At the end of the incubation period, 20 μl of the tetrazolium reagent WST-8 (2-(2-methoxy-nitrophenyl)-3-(4-nitrophenyl)-5-(2,4-disulfophenyl)-2-tetrazolium, monosodium salt]) was added to each well, and the plates were returned to the incubator for 2 hours. The absorbance in each well of the plates was then measured using the Molecular Devices plate reader at 450 nm. Surviving fraction of cells at each concentration of taxoid or conjugate are plotted in FIGS. 2 a,b.

[2] = tested on: Human colon tumor cells, COLO 205; experiment: In vitro potency and specificity, WST-8 assay, antigen positive COLO 205 cells; assay type: cell-based; conditions: COLO 205 (antigen positive), 4 days incubation
Description: as §1, §2

Molecule	IC50 ([1]; Homo sapiens, 96 h)	IC50 ([2]; Homo sapiens, 96 h)	IC50 [1]	antigen negative cells less sensitive than COLO 205 ([1]; A-375 versus COLO 205)	IC50 [2]
CSSC(C)(C)CCC(=O)O[C@H]1C(=O)[C@@]2(C)[C@H]([C@H](OC(=O)c3ccco3)[C@]3(O)C[C@H](OC(=O)[C@H](O)[C@@H](NC(=O)OC(C)(C)C)c4ccco4)C(C)=C1C3(C)C)[C@]1(OC(C)=O)CO[C@@H]1C[C@@H]2O [IGT-16-141, 3′-dephenyl-3′-(2-furyl)-2-debenzoyl-2-(2-furoyl)-10-(4,4-dimethyl-4-methyldithiobutanoyl)-docetaxel]	~0.8 nM	~0.8 nM			
huC242-taxoid (conjugate, chains of the INN, looked up, taxoid payload conjugate) VH: QVQLVQSGAEVKKPGETVKISCKASDYTFTYYGMNWVKQAPGQGLKWMGWIDTTTGEPTYAQKFQGRIAFSLETSASTAYLQIKSLKSEDTATYFCARRGPYNWYFDVWGQGTTVTVSS VL: DIVMTQSPLSVPVTPGEPVSISCRSSKSLLHSNGNTYLYWFLQRPGQSPQLLIYRMSNLVSGVPDRFSGSGSGTAFTLRISRVEAEDVGVYYCLQHLEYPFTFGPGTKLELK			29 nM	about 94 fold	0.31 nM
